# From patent US20260028402A1 (published 2026)
# B1: Pepinemab (antibody, V domains shown)
# VH: QVQLVQSGAEVKKPGSSVKVSCKASGYSFSDYYMHWVRQAPGQGLEWMGQINPTTGGASYNQKFKGKATITVDKSTSTAYMELSSLRSEDTAVYYCARYYYGRHFDVWGQGTTVTVSS
# VL: DIVMTQSPDSLAVSLGERATINCKASQSVDYDGDSYMNWYQQKPGQPPKLLIYAASNLESGVPDRFSGSGSGTDFTLTISSLQAEDVAVYYCQQSNEDPYTFGQGTKLEIK
# Legend:
# [1] = target: T1, full-length mouse CD100 protein MusCD100 on cells (mouse, UniProt O09126 24-861); experiment: FACS
# T1 chain: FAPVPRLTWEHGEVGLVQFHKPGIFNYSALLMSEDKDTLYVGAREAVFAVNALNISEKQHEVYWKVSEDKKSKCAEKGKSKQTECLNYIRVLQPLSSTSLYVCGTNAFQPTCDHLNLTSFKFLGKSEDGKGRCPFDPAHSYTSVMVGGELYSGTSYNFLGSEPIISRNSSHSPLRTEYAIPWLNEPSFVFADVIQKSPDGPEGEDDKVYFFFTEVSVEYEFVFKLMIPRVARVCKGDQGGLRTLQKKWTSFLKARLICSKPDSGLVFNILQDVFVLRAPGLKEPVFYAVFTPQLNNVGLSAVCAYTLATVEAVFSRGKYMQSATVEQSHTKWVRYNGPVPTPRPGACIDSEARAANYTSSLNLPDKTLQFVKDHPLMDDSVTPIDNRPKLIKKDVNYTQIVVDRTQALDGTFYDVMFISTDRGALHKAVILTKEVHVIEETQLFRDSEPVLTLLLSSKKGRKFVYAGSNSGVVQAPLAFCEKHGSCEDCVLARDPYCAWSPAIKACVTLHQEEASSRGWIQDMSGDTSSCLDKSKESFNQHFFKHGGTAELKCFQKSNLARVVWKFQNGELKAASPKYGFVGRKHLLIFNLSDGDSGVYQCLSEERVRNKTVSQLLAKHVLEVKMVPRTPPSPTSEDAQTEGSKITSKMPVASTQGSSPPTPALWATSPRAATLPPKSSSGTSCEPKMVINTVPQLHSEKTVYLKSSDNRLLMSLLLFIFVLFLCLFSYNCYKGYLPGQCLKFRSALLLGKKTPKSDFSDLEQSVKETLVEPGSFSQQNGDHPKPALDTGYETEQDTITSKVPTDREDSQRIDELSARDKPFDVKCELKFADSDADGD
# [2] = target: T2, HuCD100-Fc (in-house prepared) (human, UniProt Q92854 22-734, biotinylated in the Plexin binding and blocking assays (sites not given)); experiment: FACS blocking; HuPlexin-B1-HEK293, FIG. 12B
# [3] = target: T2, HuCD100-Fc (in-house prepared); experiment: FACS blocking; HuPlexin-B2-HEK293, FIG. 12C
# MusCD100-Fc = target: T3, MusCD100-Fc (mouse, UniProt O09126 24-733, biotinylated in the Plexin binding and blocking assays (sites not given)); experiment: ELISA
# T3 chain: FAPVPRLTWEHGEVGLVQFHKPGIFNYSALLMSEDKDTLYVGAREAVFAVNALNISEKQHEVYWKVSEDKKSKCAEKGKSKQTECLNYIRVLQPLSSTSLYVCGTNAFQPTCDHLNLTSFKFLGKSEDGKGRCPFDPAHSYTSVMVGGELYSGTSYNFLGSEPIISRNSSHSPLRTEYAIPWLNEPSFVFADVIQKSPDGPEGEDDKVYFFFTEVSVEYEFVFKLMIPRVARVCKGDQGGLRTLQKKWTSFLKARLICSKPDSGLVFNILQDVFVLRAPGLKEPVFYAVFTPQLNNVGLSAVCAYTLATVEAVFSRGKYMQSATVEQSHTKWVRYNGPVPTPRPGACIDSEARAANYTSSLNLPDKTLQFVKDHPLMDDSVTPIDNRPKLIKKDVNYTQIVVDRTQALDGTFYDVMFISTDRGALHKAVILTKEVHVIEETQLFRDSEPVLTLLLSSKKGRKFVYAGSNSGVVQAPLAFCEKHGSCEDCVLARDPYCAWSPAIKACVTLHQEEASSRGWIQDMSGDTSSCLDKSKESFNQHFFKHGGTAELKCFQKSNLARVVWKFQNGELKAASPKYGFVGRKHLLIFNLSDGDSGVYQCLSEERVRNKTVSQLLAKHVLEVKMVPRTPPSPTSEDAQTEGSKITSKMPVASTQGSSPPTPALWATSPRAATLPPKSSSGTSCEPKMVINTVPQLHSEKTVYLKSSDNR
# HuCD100-His = HuCD100-His (human, UniProt Q92854 22-734); experiment: ELISA
# MusCD100-His = target: T4, MusCD100-His (mouse, UniProt O09126 24-733); experiment: ELISA
# T4 chain: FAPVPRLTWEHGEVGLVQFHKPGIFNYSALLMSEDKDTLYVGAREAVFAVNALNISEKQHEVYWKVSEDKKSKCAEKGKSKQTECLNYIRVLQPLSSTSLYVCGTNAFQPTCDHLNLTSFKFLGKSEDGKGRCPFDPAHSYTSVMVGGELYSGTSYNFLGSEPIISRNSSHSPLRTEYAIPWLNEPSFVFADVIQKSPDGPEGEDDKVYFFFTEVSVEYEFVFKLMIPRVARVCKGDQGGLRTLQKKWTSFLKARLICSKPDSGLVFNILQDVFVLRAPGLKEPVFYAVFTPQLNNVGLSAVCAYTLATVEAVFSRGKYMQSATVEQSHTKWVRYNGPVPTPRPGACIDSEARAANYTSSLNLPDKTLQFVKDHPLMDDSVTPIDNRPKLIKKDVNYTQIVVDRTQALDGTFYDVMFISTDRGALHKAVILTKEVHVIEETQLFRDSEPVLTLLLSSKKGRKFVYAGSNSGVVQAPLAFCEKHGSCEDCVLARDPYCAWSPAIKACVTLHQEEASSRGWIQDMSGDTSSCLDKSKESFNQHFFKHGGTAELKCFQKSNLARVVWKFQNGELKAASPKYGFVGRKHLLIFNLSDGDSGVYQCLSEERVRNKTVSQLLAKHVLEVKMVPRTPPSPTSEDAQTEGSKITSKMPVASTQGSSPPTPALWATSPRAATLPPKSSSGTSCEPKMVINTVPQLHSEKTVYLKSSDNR
binder,measurement,setting,value
B1,EC50,[1],0.307 nM
same,IC50,[2],1.31 nM
same,IC50,[3],1.45 nM
same,EC50,MusCD100-Fc,0.136 mg/L
same,EC50,HuCD100-His,0.0804 mg/L
same,EC50,MusCD100-His,0.174 mg/L
